B1: Azoarcus group I ribozyme (parent)
chain: GUGCCUUGCGCCGGGAAACCACGCAAGGGAUGGUGUCAAAUUCGGCGAAACCUAAGCGCCCGCCCGGGCGUAUGGCAACGCCGAGCCAAGCUUCGGCGCCUGCGCCGAUGAAGGUGUAGAGACUAGACGGCACCCACCUAAGGCAAACGCUAUGGUGAAGGCAUAGUCCAGGGAGUGGCGAAAGUCACACAAACCGG

Variants of: B1
Experiment: reverse-splicing fitness (ratio to wild type); higher = more active; in vitro selection; Mg2+ level not given
How it was run: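 An in vitro group I ribozyme library with randomized positions was T7-transcribed and gel-purified. In triplicate, 10 pmol RNA in EPPS pH 7.5 was reacted with 50 pmoles of a 30-nt RNA substrate for 1 h at 37 °C across several added MgCl2 levels (1–48 mM), then stopped with EDTA. Products were reverse transcribed from a substrate-complementary primer, PCR-amplified and sequenced (HiSeq 4000). Fitness is a variant's read proportion after selection over that before, normalised to wild type.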

Variant | reverse-splicing fitness
GUGCCUUGCGCCGGGAAACCACGCAAGGGAUGGUGUCAAAUUCGGCGAAACCUAAGCGCCCGCCCGGGCGUAUGGCAACGCCGAGCCAAGCUUCGGCGCCUGCGCCGAUGCAGGUGUAGAGACUAGACGGCACCCACCUAAGGCUAACGAUAUGGUGAAGGCAUAGUCCAGGGAGUGGCGAAAGUCACACAAACCGG [A111C A145U C150A] | 0.286
GUGCCUUGCGCCGGGAAACCACGCAAGGGAUGGUGUCAAAUUCGGCGAAACCUAAGCGCCCGCCCGGGCGUAUGGCAACGCCGAGCCAAGCUUCGGCGCCUGCGCCGAUGCAGGUGUAGAGACUAGACGGCACCCACCUAAGGCGAACGCUAUGGUGAAGGCAUAGUCCAGGGAGAGGCGAAAGUCACACAAACCGG [A111C A145G U176A] | 0.432
GUGCCUUGCGCCGGGAAACCACGCAAGGGAUGGUGUCAAAUUCGGCGAAACCUAAGCGCCCGCCCGGGCGUAUGGCAACGCCGAGCCAAGCUUCGGCGCCUGCGCCGAUGCAGGUGUAGAGACUAGACGGCACCCACCUAAGGCGAACGCUAUGGUGAAGGCAUAGUCCAGGGAGGGGCGAAAGUCACACAAACCGG [A111C A145G U176G] | 0.185
GUGCCUUGCGCCGGGAAACCACGCAAGGGAUGGUGUCAAAUUCGGCGAAACCUAAGCGCCCGCCCGGGCGUAUGGCAACGCCGAGCCAAGCUUCGGCGCCUGCGCCGAUGCAGGUGUAGAGACUAGACGGCACCCACCUAAGGCGAACGCUAUGGUGAAGGCAUAGUCCAGGGAGCGGCGAAAGUCACACAAACCGG [A111C A145G U176C] | 0.401
GUGCCUUGCGCCGGGAAACCACGCAAGGGAUGGUGUCAAAUUCGGCGAAACCUAAGCGCCCGCCCGGGCGUAUGGCAACGCCGAGCCAAGCUUCGGCGCCUGCGCCGAUGCAGGUGUAGAGACUAGACGGCACCCACCUAAGGCUAACGAUAUGGUGAAGGCAUAGUCAAGGGAGUGGCGAAAGUCACACAAACCGG [A111C A145U C150A C169A] | 0.0106
GUGCCUUGCGCCGGGAAACCACGCAAGGGAUGGUGUCAAAUUCGGCGAAACCUAAGCGCCCGCCCGGGCGUAUGGCAACGCCGAGCCAAGCUUCGGCGCCUGCGCCGAUGCAGGUGUAGAGACUAGACGGCACCCACCUAAGGCUAACGAUAUGGUGAAGGCAUAGUCGAGGGAGUGGCGAAAGUCACACAAACCGG [A111C A145U C150A C169G] | 0.0113
GUGCCUUGCGCCGGGAAACCACGCAAGGGAUGGUGUCAAAUUCGGCGAAACCUAAGCGCCCGCCCGGGCGUAUGGCAACGCCGAGCCAAGCUUCGGCGCCUGCGCCGAUGCAGGUGUAGAGACUAGACGGCACCCACCUAAGGCUAACGAUAUGGUGAAGGCAUAGUCUAGGGAGUGGCGAAAGUCACACAAACCGG [A111C A145U C150A C169U] | 0.0179
GUGCCUUGCGCCGGGAAACCACGCAAGGGAUGGUGUCAAAUUCGGCGAAACCUAAGCGCCCGCCCGGGCGUAUGGCAACGCCGAGCCAAGCUUCGGCGCCUGCGCCGAUGCAGGUGUAGAGACUAGACGGCACCCACCUAAGGCUAACGAUAUGGUGAAGGCAUAGUCGAGGGAGCGGCGAAAGUCACACAAACCGG [A111C A145U C150A C169G U176C] | 0.0203
GUGCCUUGCGCCGGGAAACCACGCAAGGGAUGGUGUCAAAUUCGGCGAAACCUAAGCGCCCGCCCGGGCGUAUGGCAACGCCGAGCCAAGCUUCGGCGCCUGCGCCGAUGCAGGUGUAGAGACUAGACGGCACCCACCUAAGGCUAACGAUAUGGUGAAGGCAUAGUCGAGGGAGAGGCGAAAGUCACACAAACCGG [A111C A145U C150A C169G U176A] | 0.0133
GUGCCUUGCGCCGGGAAACCACGCAAGGGAUGGUGUCAAAUUCGGCGAAACCUAAGCGCCCGCCCGGGCGUAUGGCAACGCCGAGCCAAGCUUCGGCGCCUGCGCCGAUGCAGGUGUAGAGACUAGACGGCACCCACCUAAGGCUAACGAUAUGGUGAAGGCAUAGUCGAGGGAGGGGCGAAAGUCACACAAACCGG [A111C A145U C150A C169G U176G] | 0.00765
GUGCCUUGCGCCGGGAAACCACGCAAGGGAUGGUGUCAAAUUCGGCGAAACCUAAGCGCCCGCCCGGGCGUAUGGCAACGCCGAGCCAAGCUUCGGCGCCUGCGCCGAUGCAGGUGUAGAGACUAGACGGCACCCACCUAAGGCGAACGUUAUGGUGAAGGCAUAGUCUAGGGAGGGGCGAAAGUCACACAAACCGG [A111C A145G C150U C169U U176G] | 0.00751
GUGCCUUGCGCCGGGAAACCACGCAAGGGAUGGUGUCAAAUUCGGCGAAACCUAAGCGCCCGCCCGGGCGUAUGGCAACGCCGAGCCAAGCUUCGGCGCCUGCGCCGAUGCAGGUGUAGAGACUAGACGGCACCCACCUAAGGCGAACGUUAUGGUGAAGGCAUAGUCCAGGGAGCGGCGAAAGUCACACAAACCGG [A111C A145G C150U U176C] | 0.404
GUGCCUUGCGCCGGGAAACCACGCAAGGGAUGGUGUCAAAUUCGGCGAAACCUAAGCGCCCGCCCGGGCGUAUGGCAACGCCGAGCCAAGCUUCGGCGCCUGCGCCGAUGCAGGUGUAGAGACUAGACGGCACCCACCUAAGGCGAACGUUAUGGUGAAGGCAUAGUCCAGGGAGAGGCGAAAGUCACACAAACCGG [A111C A145G C150U U176A] | 0.313
GUGCCUUGCGCCGGGAAACCACGCAAGGGAUGGUGUCAAAUUCGGCGAAACCUAAGCGCCCGCCCGGGCGUAUGGCAACGCCGAGCCAAGCUUCGGCGCCUGCGCCGAUGCAGGUGUAGAGACUAGACGGCACCCACCUAAGGCGAACGUUAUGGUGAAGGCAUAGUCCAGGGAGGGGCGAAAGUCACACAAACCGG [A111C A145G C150U U176G] | 0.135
GUGCCUUGCGCCGGGAAACCACGCAAGGGAUGGUGUCAAAUUCGGCGAAACCUAAGCGCCCGCCCGGGCGUAUGGCAACGCCGAGCCAAGCUUCGGCGCCUGCGCCGAUGCAGGUGUAGAGACUAGACGGCACCCACCUAAGGCUAACGAUAUGGUGAAGGCAUAGUCAAGGGAGCGGCGAAAGUCACACAAACCGG [A111C A145U C150A C169A U176C] | 0.0151
GUGCCUUGCGCCGGGAAACCACGCAAGGGAUGGUGUCAAAUUCGGCGAAACCUAAGCGCCCGCCCGGGCGUAUGGCAACGCCGAGCCAAGCUUCGGCGCCUGCGCCGAUGCAGGUGUAGAGACUAGACGGCACCCACCUAAGGCUAACGAUAUGGUGAAGGCAUAGUCAAGGGAGAGGCGAAAGUCACACAAACCGG [A111C A145U C150A C169A U176A] | 0.0138
GUGCCUUGCGCCGGGAAACCACGCAAGGGAUGGUGUCAAAUUCGGCGAAACCUAAGCGCCCGCCCGGGCGUAUGGCAACGCCGAGCCAAGCUUCGGCGCCUGCGCCGAUGCAGGUGUAGAGACUAGACGGCACCCACCUAAGGCUAACGAUAUGGUGAAGGCAUAGUCAAGGGAGGGGCGAAAGUCACACAAACCGG [A111C A145U C150A C169A U176G] | 0.00755
GUGCCUUGCGCCGGGAAACCACGCAAGGGAUGGUGUCAAAUUCGGCGAAACCUAAGCGCCCGCCCGGGCGUAUGGCAACGCCGAGCCAAGCUUCGGCGCCUGCGCCGAUGCAGGUGUAGAGACUAGACGGCACCCACCUAAGGCGAACGCUAUGGUGAAGGCAUAGUCUAGGGAGGGGCGAAAGUCACACAAACCGG [A111C A145G C169U U176G] | 0.00717
GUGCCUUGCGCCGGGAAACCACGCAAGGGAUGGUGUCAAAUUCGGCGAAACCUAAGCGCCCGCCCGGGCGUAUGGCAACGCCGAGCCAAGCUUCGGCGCCUGCGCCGAUGCAGGUGUAGAGACUAGACGGCACCCACCUAAGGCGAACGCUAUGGUGAAGGCAUAGUCUAGGGAGCGGCGAAAGUCACACAAACCGG [A111C A145G C169U U176C] | 0.0294
GUGCCUUGCGCCGGGAAACCACGCAAGGGAUGGUGUCAAAUUCGGCGAAACCUAAGCGCCCGCCCGGGCGUAUGGCAACGCCGAGCCAAGCUUCGGCGCCUGCGCCGAUGCAGGUGUAGAGACUAGACGGCACCCACCUAAGGCGAACGCUAUGGUGAAGGCAUAGUCUAGGGAGAGGCGAAAGUCACACAAACCGG [A111C A145G C169U U176A] | 0.0269
GUGCCUUGCGCCGGGAAACCACGCAAGGGAUGGUGUCAAAUUCGGCGAAACCUAAGCGCCCGCCCGGGCGUAUGGCAACGCCGAGCCAAGCUUCGGCGCCUGCGCCGAUGCAGGUGUAGAGACUAGACGGCACCCACCUAAGGCUAACGCUAUGGUGAAGGCAUAGUCCAGGGAGUGGCGAAAGUCACACAAACCGG [A111C A145U] | 0.839
GUGCCUUGCGCCGGGAAACCACGCAAGGGAUGGUGUCAAAUUCGGCGAAACCUAAGCGCCCGCCCGGGCGUAUGGCAACGCCGAGCCAAGCUUCGGCGCCUGCGCCGAUGCAGGUGUAGAGACUAGACGGCACCCACCUAAGGCGAACGCUAUGGUGAAGGCAUAGUCAAGGGAGGGGCGAAAGUCACACAAACCGG [A111C A145G C169A U176G] | 0.0065
GUGCCUUGCGCCGGGAAACCACGCAAGGGAUGGUGUCAAAUUCGGCGAAACCUAAGCGCCCGCCCGGGCGUAUGGCAACGCCGAGCCAAGCUUCGGCGCCUGCGCCGAUGCAGGUGUAGAGACUAGACGGCACCCACCUAAGGCGAACGCUAUGGUGAAGGCAUAGUCAAGGGAGAGGCGAAAGUCACACAAACCGG [A111C A145G C169A U176A] | 0.0288
GUGCCUUGCGCCGGGAAACCACGCAAGGGAUGGUGUCAAAUUCGGCGAAACCUAAGCGCCCGCCCGGGCGUAUGGCAACGCCGAGCCAAGCUUCGGCGCCUGCGCCGAUGCAGGUGUAGAGACUAGACGGCACCCACCUAAGGCGAACGCUAUGGUGAAGGCAUAGUCAAGGGAGCGGCGAAAGUCACACAAACCGG [A111C A145G C169A U176C] | 0.0307
GUGCCUUGCGCCGGGAAACCACGCAAGGGAUGGUGUCAAAUUCGGCGAAACCUAAGCGCCCGCCCGGGCGUAUGGCAACGCCGAGCCAAGCUUCGGCGCCUGCGCCGAUGCAGGUGUAGAGACUAGACGGCACCCACCUAAGGCGAACGCUAUGGUGAAGGCAUAGUCGAGGGAGGGGCGAAAGUCACACAAACCGG [A111C A145G C169G U176G] | 0.00716
GUGCCUUGCGCCGGGAAACCACGCAAGGGAUGGUGUCAAAUUCGGCGAAACCUAAGCGCCCGCCCGGGCGUAUGGCAACGCCGAGCCAAGCUUCGGCGCCUGCGCCGAUGCAGGUGUAGAGACUAGACGGCACCCACCUAAGGCGAACGCUAUGGUGAAGGCAUAGUCGAGGGAGCGGCGAAAGUCACACAAACCGG [A111C A145G C169G U176C] | 0.0392
GUGCCUUGCGCCGGGAAACCACGCAAGGGAUGGUGUCAAAUUCGGCGAAACCUAAGCGCCCGCCCGGGCGUAUGGCAACGCCGAGCCAAGCUUCGGCGCCUGCGCCGAUGCAGGUGUAGAGACUAGACGGCACCCACCUAAGGCGAACGCUAUGGUGAAGGCAUAGUCGAGGGAGAGGCGAAAGUCACACAAACCGG [A111C A145G C169G U176A] | 0.0283
GUGCCUUGCGCCGGGAAACCACGCAAGGGAUGGUGUCAAAUUCGGCGAAACCUAAGCGCCCGCCCGGGCGUAUGGCAACGCCGAGCCAAGCUUCGGCGCCUGCGCCGAUGCAGGUGUAGAGACUAGACGGCACCCACCUAAGGCGAACGCUAUGGUGAAGGCAUAGUCAAGGGAGUGGCGAAAGUCACACAAACCGG [A111C A145G C169A] | 0.0355
GUGCCUUGCGCCGGGAAACCACGCAAGGGAUGGUGUCAAAUUCGGCGAAACCUAAGCGCCCGCCCGGGCGUAUGGCAACGCCGAGCCAAGCUUCGGCGCCUGCGCCGAUGCAGGUGUAGAGACUAGACGGCACCCACCUAAGGCGAACGCUAUGGUGAAGGCAUAGUCUAGGGAGUGGCGAAAGUCACACAAACCGG [A111C A145G C169U] | 0.126
GUGCCUUGCGCCGGGAAACCACGCAAGGGAUGGUGUCAAAUUCGGCGAAACCUAAGCGCCCGCCCGGGCGUAUGGCAACGCCGAGCCAAGCUUCGGCGCCUGCGCCGAUGCAGGUGUAGAGACUAGACGGCACCCACCUAAGGCGAACGCUAUGGUGAAGGCAUAGUCGAGGGAGUGGCGAAAGUCACACAAACCGG [A111C A145G C169G] | 0.0737

From the RNAGym collection of RNA variant scans (doi:10.1093/molbev/msab373)
